Here are results for one molecule from paper PMC5889325 (Molecular cell, 2018).

Data set [1] deals with amino-terminal poly-histidine-tagged Cas4 (Bacillus halodurans type I-C), co-expressed with untagged Cas1 (Bacillus halodurans). The data set can be described thus: negative-stain EM reconstruction.
Data set [2] concerns the molecule itself. The data set can be described thus: negative-stain EM reconstruction.

B1: untagged Cas1 (Bacillus halodurans type I-C), co-expressed with His6-Cas4 (natural protein, UniProt Q9KFX9 1-343, looked up)
chain: MKKLLNTLYVTQPDTYLSLDGDNVVLLKEQEKLGRLPLHNLEAIVGFGYTGASPALMGYCAERNISITFLTKNGRFLARVVGESRGNVVLRKTQYRISENDQESTKIARNFITGKVYNSKWMLERMTREHPLRVNVEQFKATSQLLSVMMQEIRNCDSLESLRGWEGQAAINYNKVFDQMILQQKEEFAFHGRSRRPPKDNVNAMLSFAYTLLANDVAAALETVGLDAYVGFMHQDRPGRASLALDLMEELRGLYADRFVLSLINRKEMTADGFYKKENGAVLMTDEARKTFLKAWQTKKQEKITHPYLGEKMSWGLVPYVQALLLARFLRGDLDEYPPFLWK
Regarding B1, in data set [1], the stoichiometry N (Cas1 per complex) was determined as 4 and the stoichiometry N (Cas4 per complex) worked out at 2. Moreover, the binding result in data set [2] is on record as “binds”.
